Measurements taken from the nanobody polyreactivity screen of Harvey et al. (2022).

experiment: yeast display, Sf9 membrane polyspecificity reagent, FACS + sequencing; frameworks hold sequencing errors
How it was run: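 After 36–48 hours of galactose induction, yeast (Saccharomyces cerevisiae BJ5465) displaying a synthetic nanobody library were stained at 4 °C for 1 hour with 10% biotinylated, detergent-solubilized Sf9 membrane reagent. Streptavidin microbeads enriched the stained cells before FACS sorting into low and high (top ~1%) gates on anti-HA and streptavidin fluorescence. Each clone's polyreactivity label reflects its gate of origin.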

Sequence | polyreactivity (PSR sort gate)
QVQLVESGGGIVQAGGSLRLSCAASGIIFSANAMGWYRQAPGKERELVAAISRAGSTNYADYVKGRFTISRDNAKNTVYLQMNSLKPEDTAVYYCAAGGGFYFIWTMDYWGQGTQVTVSS | low polyreactivity
QVQLVESGGGIVQAGGSLRLSCAASGIIIAVYAMGWYRQAPGKERELVAAISWSSGNTYYADSVKGRFTISRENAKNTVYLQMNSLNPEDTAVYYCAAVSRYKYDYWGQGTQVTVSS | high polyreactivity
QVQLVESGGGIVQAGGSLRLSCAASGITFQRNALGWYRQAPGKERELVAAISKSGGSTYYADSVKARFTISRDNAKNTVYLQMNSLKPEDTAVYDCAAPVWRYYRGKTFDFWGQGTQVTVSS | high polyreactivity
QVQLVESGGGIVQAGGSLRLSCAASGLIFYNYAMGWYRQAPGKERELVAAITSGGSTYYADSVKGRFTISRDNAKNTVYLQMNSLKPEDTAVYYCAADLTYTVPFDYWGQGTQVTVSS | high polyreactivity
QVQLVESGGGIVQAGGSLRLSCAASGLIFYTYAMGWYRQAPGKERELVATISWDVDSTNYADSVKGRFTISRDNAKNTVYLQMNSLKPEDTAGYYCAVDSTFDSYWYWVDYYEYGYWGQGTQVTVSS | high polyreactivity
QVQLVESGGGIVQAGGSLRLSCAASGLILANNAMGRYRQAPGKETELVATISSSGGRTSYADSVKGRFTISRDNAKNTVYLQMNSLKPEDTAVYYCAKYCGRYPHGRSWYDYWGQGTQVTVSS | high polyreactivity
QVQLVESGGGIVQAGGSLRLSCAASGLNFYWYAMGWYRQAPGKERELVAAITWSGGITYYADSVKGRFTISRDNANNTVYLQMNSLNPEDTAVYYCADDDDYGDVTYDYWGHGTQVTVSS | low polyreactivity
QVQLVESGGGIVQAGGSLRLSCAASGLTFPPNAMGWYRPAPGKEREFVAVISSGGGSTYYADSVKGRFTISRDNAKNTVYSQMNSLKPEDTAVYYCATEYQDGDTEYYYWGQGTQVTVSS | low polyreactivity
QVQLVESGGGIVQAGGSLRLSCAASGLTFRYYAMGWYRQAPGKERELVAAISGSGGSTYYADSVKGRFTISRDNAKNTVYLQLNRLKPEDTAVYYFASENESSSWGDYAMGYWGQGTQVTVST | high polyreactivity
QVQLVESGGGIVQAGGSLRLSCAASGNTFGYYAMGWYRPAPGKERELVASISYSGGSTYADSVKGRFTISRDNAKNTVYLQMNSLKPEDTAVYYCAADYWIYAADSWVLYDSWGQGTQVTVSS | low polyreactivity
QVQLVESGGGIVQAGGSLRLSCAASGNTFHTYAMGWNRQAPVKERELVAAISSRGVGTYYADSVKGRFTISRDNAKNTVYLQMNSLKPEDTAVYYCAARHHPEYYYWGQGTQVTVSS | high polyreactivity
QVQLVESGGGIVQAGGSLRLSCAASGRICIINAMGWYRQATGKERELVAAISTSGGRTYYADSVKGRFTISRDNAKNTVYLQKNSLKPVDTAVYYCNAGRGYRYYRSVGSSPYEYWGQGTQVTVSS | high polyreactivity
QVQLVESGGGIVQAGGSLRLSCAASGRIFAFNAMGWYRPAPGKERELVADITSSGVNTYYADSVKGRFTISRDNAINTVYLQMNSLKPEYTAVYYCAARSYLRWWVGMEYWGQGTQVTVSS | low polyreactivity
QVQLVESGGGIVQAGGSLRLSCAASGRIFAYYAMGWYRQAPGKERELVAAISSSGGGTYYAYSVKGRFTISRDNAKNTVYLQMTSLKPEDTSVYYCAKRVPRKSSVSHPYDYWGQGTQVTVSS | high polyreactivity
QVQLVESGGGIVQAGGSLRLSCAASGRIFFGYAMGWYRQAPGKERELVAAITSGGSTYYADSVKGRFTISRDNAKNTDYLQMYSLKTEDTAVYYCAAVRWYGSKRYGYWGQGTQVTVSS | high polyreactivity
QVQLVESGGGIVQAGGSLRLSCAASGRIFPYNAMGWYIQAPGKERELVAAIRWSGGNTYYADSVKGRFTISRDNAKNTVYLQMNSLKPEDNAVYYCAKYRRSFGFDYWGQGTQVTVSS | high polyreactivity

Sequence | polyreactivity (PSR sort gate)
QVQLVESGGGIVQAGGSLRLSCAASGRIFRLNAMGWYRQAPGKERELVAAISSRAGSTYYADSVKGRFTISRDNAKNTVYLQMNSLKPEDTAVYYCAARTYSSRLGRDSDYWGQGTQVTVSS | high polyreactivity
QVQLVESGGGIVQAGGSLRLSCAASGRIFVPNAMGWYRQAPGKERELVAAITSDGRTNYADSVKGRFTISRDNAKHTVYLQMNSLKPEDTAVYYCNAPVVTFGGYQDDVEYGYWGQGTQVTVSS | low polyreactivity
QVQLVESGGGIVQAGGSLRLSCAASGRIFVRNAMGWYRQARGKERELVAAISWSGGTNYADSVKGSFTISRDNAKNTVYLQMNILKPEDTAVYYCAALSVWSYYTYYYWGQGTQVTVSS | high polyreactivity
QVQLVESGGGIVQAGGSLRLSCAASGRIFWDYAMGWYRQAPGKERELVDVITLSGDSTYYADSVKGRFTISRDNAKNTVYLQMNSLKPEDTAVYYCAAARAIRQFWYVATFEYWGQGTQVTVSS | low polyreactivity
QVQLVESGGGIVQAGGSLRLSCAASGRIFWYNAMGWYRQAPGKERELVAGITRSGGRTYYADCVKGRFTISRDNAKNTVYLQMNSLKPEYTAVYYCAAAPYARRDYEYWGQGTQVTVSS | high polyreactivity
QVQLVESGGGIVQAGGSLRLSCAASGRILGANDMGWYRQAPGTERELVAAITSGGRTYYADSVKGRFTISRDNAKNTVYLQMNCLKPEDTAVYYCAVGGWDESVGKGYDYWGQGTQVTVSS | low polyreactivity
QVQLVESGGGIVQAGGSLRLSCAASGRILSRYAMGWYRQAPGKESDLVADISSGGRTHYADSVKGRFTISRDNAKNTVYFQMNSLKPEDSAVYYCAKDYTPYSRRLNSGGYYYWGQGTQVTVSS | high polyreactivity
QVQLVESGGGIVQAGGSLRLSCAASGRTFKSNAMGWSIQAPGKERELVAAISRSGVRTDYADSVKGRFTISRDNANITVYLQMNSLKPEDTAVYYCADRTWNRRSPYDYWGQGTQVTVSS | high polyreactivity
QVQLVESGGGIVQAGGSLRLSCAASGRTFKVNAMGWYIQAPGKEREFVAAITWNSGSSTYYADSVKGRFTISRDNAKNTVYLQMNSLKPEDTAVYYCAARSAGRYWNYYWGQGTQVTVSS | high polyreactivity
QVQLVESGGGIVQAGGSLRLSCAASGRTFYGNAMGWYIQEPGKERELVAGISQNGGSTYYADSVKGRFTSSRDTAKNTVYLQMNRLKPEDSAVYYCAADSYYFTGYWAHPYDYWGEGTQVTVSS | high polyreactivity
QVQLVESGGGIVQAGGSLRLSCAASGRTFYRNAMGWYIHAPGKERELVAAITSGGSTYYADSVKGRFTISRDNAKNSGYLQMNCLKPEDTAVYYCAALRHALRYDYWGQGTQVTVSS | low polyreactivity
QVQLVESGGGIVQAGGSLRLSCAASGRTFYYNAMGWYRQAPGKERELVAAISSSGGSTYYADSVKGRFTISRDNAKNTVYLQMNSLKPEDTAGYYCAASSPGARGGGGYWGQGTQVTVSS | high polyreactivity
QVQLVESGGGIVQAGGSLRLSCAASGRTSVVNAMGWYRQAPGKERELVAAITSGGSTHYADSVKGRFTISRDNAKNTVYLQINSLKPEDTAVYYCNARDRRRTNLLDYWGQGSQVTVSS | low polyreactivity
QVQLVESGGGIVQAGGSLRLSCAASGSIDWNAKGWYRQAPGKEREFVAAISSSGGRTSYADSVKGRFTISRDNAKNTVYLEMNSLKPEDTAVYYGAAAGSYDGDRYYYWGQGTQVTVSS | high polyreactivity
QVQLVESGGGIVQAGGSLRLSCAASGSIFARYAMGWSRPAPGKERELVAAISGRGGSTYYADSVKGRFTISRDHATNTDYLQMNSLKPEDTAVYYWNAVWDDYGFYSPYVVVEYDYWGQGTQVTVSS | high polyreactivity
